Assay results as given in patent US8404647B2, “Peptidylarginine deiminase (PAD) inhibitors” (Chiralix B.V., priority 2008, dated 2013).
Marks after values point to notes of the source that are not given here. Blank lines part the entries; values can stand above or below the substance they belong to. Ends that are not written are not given here.

Experiments:
PAD4 = PAD4 (Homo sapiens, UniProt Q9UM07); assay: Conversion (R to Cit) of substrate peptides by PAD4, mass spectrometry; format: biochemical; conditions: for Conversion: Table 7, PAD4, test system with 3 times less enzyme; for Conversion by PAD4 (%): Table 10; for Conversion (%): PAD4
PAD4, sequence (Q9UM07 whole entry): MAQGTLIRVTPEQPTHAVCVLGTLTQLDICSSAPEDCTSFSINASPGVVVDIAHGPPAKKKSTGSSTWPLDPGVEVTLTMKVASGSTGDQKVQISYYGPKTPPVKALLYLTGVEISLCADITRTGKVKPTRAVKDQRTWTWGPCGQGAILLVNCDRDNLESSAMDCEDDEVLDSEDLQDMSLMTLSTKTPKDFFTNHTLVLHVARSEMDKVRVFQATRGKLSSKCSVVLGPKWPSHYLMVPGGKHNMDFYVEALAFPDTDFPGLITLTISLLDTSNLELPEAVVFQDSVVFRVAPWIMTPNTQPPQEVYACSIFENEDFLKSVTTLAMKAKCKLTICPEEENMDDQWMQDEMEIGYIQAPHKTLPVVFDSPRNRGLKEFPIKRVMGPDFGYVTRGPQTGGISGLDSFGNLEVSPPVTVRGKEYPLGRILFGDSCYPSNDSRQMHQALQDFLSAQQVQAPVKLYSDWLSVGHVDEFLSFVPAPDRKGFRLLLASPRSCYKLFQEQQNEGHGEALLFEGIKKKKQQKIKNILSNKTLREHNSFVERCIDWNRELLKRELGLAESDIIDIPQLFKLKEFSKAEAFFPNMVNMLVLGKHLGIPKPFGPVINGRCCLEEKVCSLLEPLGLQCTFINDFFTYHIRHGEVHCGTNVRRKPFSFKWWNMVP
From the text: From previous studies it was known that D-S-Q-F-A-F-R-G-A-S-A-S-D (designated here as L1: SEQ ID NO: 11) is a substrate for PAD2 and PAD 4. To obtain better substrates, and subsequently powerful inhibitors, we intended to identify structural elements that improve substrate properties. A set of 152 individual analog peptides was generated, each differing from L1 by one amino acid at one of the positions −4 to −1 or 1 to 4.
In Table 3 the conversion of each analog (R to Cit conversion) is depicted. Values of the analogs relate to the conversion of the analog compared to the conversion of L1 under standard conditions (100 means a conversion equal to L1, 50 means conversion of 50% of that of L1, 175 means conversion of 175% of that of L1). Numbers above 100 thus relate to amino acid substitutions that improve substrate properties.
Peptides of table 4 are represented by the following sequences SEQ ID NO: 22-31 and 33-46. Control peptide are represented by the following sequences SEQ ID NO: 11 as control L1 and SEQ ID NO: 32 as control L2. Unfortunately, a substantial number of designed peptides were too polar to be analyzed on our LC-MS system (indicated in Table 4 as n.t., not trapped on the column). We therefore also generated and tested these peptides containing two additional N-terminal F-residues to increase hydrophobicity. In this form peptides were trapped on the column and could be analyzed (see Table 5).
Based on the above results we designed 20 peptides containing multiple amino acids that improve substrate properties (see Table 7). The indicated peptides were synthesized and tested in order to identify the best substrate from this group. Here we used a test system with less enzyme (3 times less) compared to the experiments described above.
(§1) Conversion of arginine into citrulline in the substrate peptides by PAD2 or PAD4 using mass spectrometry was performed as follows. A candidate substrate peptide was incubated with a PAD as indicated for several hours at 37° C. The reaction was quenched by the addition with acetic acid. A sample was analysed on a Qtof mass spectrometer (Micromass, UK) and the mass spectrum was compared with that of the same peptide not treated with PAD. Normally, 2^+- and 3^+-ions are detected. The conversion (ΔM=0.98 Da) was calculated on the 2^+- and 3^+-ions individually, and subsequently averaged taking into account the relative peak height of the 2^+- and 3^+-signals (see FIG. 5).

PAD2 = PAD2 (Homo sapiens, UniProt Q9Y2J8); assay: Conversion (R to Cit) of substrate peptides by PAD2, mass spectrometry; format: biochemical; conditions: for Conversion by PAD2 (%): Table 10; for Conversion (%): Table 9, PAD2
PAD2, sequence (Q9Y2J8 whole entry): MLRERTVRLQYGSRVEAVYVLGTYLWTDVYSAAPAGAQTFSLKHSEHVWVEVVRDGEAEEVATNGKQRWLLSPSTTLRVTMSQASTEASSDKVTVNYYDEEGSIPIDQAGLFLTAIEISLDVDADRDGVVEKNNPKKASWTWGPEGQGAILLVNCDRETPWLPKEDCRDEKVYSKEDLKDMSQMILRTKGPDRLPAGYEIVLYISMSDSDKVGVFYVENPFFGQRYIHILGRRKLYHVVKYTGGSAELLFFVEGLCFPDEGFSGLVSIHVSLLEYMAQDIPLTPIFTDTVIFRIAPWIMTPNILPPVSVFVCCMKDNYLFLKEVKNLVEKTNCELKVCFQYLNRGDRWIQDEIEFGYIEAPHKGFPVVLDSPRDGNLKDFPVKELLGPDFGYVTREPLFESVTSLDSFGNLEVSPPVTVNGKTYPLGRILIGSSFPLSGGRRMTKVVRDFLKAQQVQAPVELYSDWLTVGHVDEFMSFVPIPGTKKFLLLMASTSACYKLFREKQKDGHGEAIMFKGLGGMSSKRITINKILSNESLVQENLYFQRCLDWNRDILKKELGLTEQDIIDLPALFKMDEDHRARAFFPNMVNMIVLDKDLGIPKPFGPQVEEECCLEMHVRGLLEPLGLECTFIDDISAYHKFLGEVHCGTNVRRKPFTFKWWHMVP
Procedure: In a similar fashion as for PAD4 we identified improved peptide substrates for PAD2. Again L1 was used as a lead compound. The set of 152 peptides from Table 3 was used and testing was performed as described before.
as §1

[1] = Table 5, peptides with two additional N-terminal F-residues

Conversion (PAD4): 23
Conversion by PAD4 (%) (PAD4): 35%
Conversion by PAD2 (%) (PAD2): 97%
Substance: D-S-K-K-F-K-R-D-F-L-F-S-D (DSKKFKRDFLFSD; not fully specified (C-terminus); printed as D-S-K-K-F-K-R-D-F-L-F-S-D) [Peptide 0708-26]

Conversion (PAD4): 60
Conversion by PAD4 (%) (PAD4): 73%
Conversion by PAD2 (%) (PAD2): 100%
Substance: D-S-K-K-F-H-R-G-F-L-Y-S-D (DSKKFHRGFLYSD; not fully specified (C-terminus); printed as D-S-K-K-F-H-R-G-F-L-Y-S-D) [Peptide 0708-33]

Conversion (%) (PAD2): 59%
Substance: D-S-M-C-A-F-R-G-A-K-K-S-D (DSMCAFRGAKKSD) [Peptide 0735-31]

Conversion by PAD4 (%) (PAD4): <20%
Conversion (%) (PAD2): 95%
Conversion by PAD2 (%) (PAD2): 95%
Substance: D-S-Q-W-A-F-R-H-A-L-F-S-D (DSQWAFRHALFSD) [Peptide 0735-37]

Conversion (%) (PAD4; Table 4, 13-mer peptides): 90%
Conversion by PAD4 (%) (PAD4): 51%
Conversion by PAD2 (%) (PAD2): 97%
Substance: D-S-H-K-H-S-R-E-W-L-W-S-D (DSHKHSREWLWSD; not fully specified (C-terminus); printed as D-S-H-K-H-S-R-E-W-L-W-S-D) [Peptide 0608-36]

Conversion (PAD4): 63
Conversion by PAD4 (%) (PAD4): 80%
Conversion by PAD2 (%) (PAD2): 90%
Substance: D-S-K-K-F-D-R-G-H-L-Y-S-D (DSKKFDRGHLYSD; not fully specified (C-terminus); printed as D-S-K-K-F-D-R-G-H-L-Y-S-D) [Peptide 0708-30]

Conversion (PAD4): 52
Conversion by PAD4 (%) (PAD4): 71%
Conversion by PAD2 (%) (PAD2): 96%
Substance: D-S-K-W-H-H-R-G-H-L-Y-S-D (DSKWHHRGHLYSD) [Peptide 0708-31]

Conversion (%) (PAD4; Table 4, 13-mer peptides): 90%
Substance: D-S-K-H-K-D-R-E-Y-V-F-S-D (DSKHKDREYVFSD; not fully specified (C-terminus); printed as D-S-K-H-K-D-R-E-Y-V-F-S-D) [Peptide 0608-22]

Conversion (%) (PAD4; Table 4, 13-mer peptides): 90%
Substance: D-S-H-H-F-H-R-E-Y-I-F-S-D (DSHHFHREYIFSD; not fully specified (C-terminus); printed as D-S-H-H-F-H-R-E-Y-I-F-S-D) [Peptide 0608-38]

Conversion (%) (PAD4; [1]): 100%
Substance: F-F-D-S-H-K-W-S-R-D-H-F-E-S-D (FFDSHKWSRDHFESD) [Peptide 0612-47]

Conversion (%) (PAD4; Table 4, 13-mer peptides): 100%
Conversion by PAD4 (%) (PAD4): 79%
Conversion by PAD2 (%) (PAD2): 90 ** %
Substance: D-S-H-K-F-D-R-D-F-I-Y-S-D (DSHKFDRDFIYSD; not fully specified (C-terminus); printed as D-S-H-K-F-D-R-D-F-I-Y-S-D) [Peptide 0608-43]

Conversion (%) (PAD4; [1]): 88%
Substance: F-F-D-S-K-K-L-H-R-D-H-M-E-S-D (FFDSKKLHRDHMESD) [Peptide 0612-31]

Conversion (%) (PAD2): 73%
Substance: D-S-Q-C-L-F-R-G-A-F-A-S-D (DSQCLFRGAFASD) [Peptide 0735-40]

Conversion (PAD4): 45
Substance: D-S-N-W-H-H-R-D-H-L-Y-S-D (DSNWHHRDHLYSD) [Peptide 0708-19]

Conversion (%) (PAD4; [1]): 100%
Conversion by PAD4 (%) (PAD4): 76%
Conversion by PAD2 (%) (PAD2): 99%
Substance: F-F-D-S-K-K-K-H-R-E-W-V-W-S-D (FFDSKKKHREWVWSD) [Peptide 0612-34]

Conversion by PAD4 (%) (PAD4): <20%
Conversion (%) (PAD2): 91%
Conversion by PAD2 (%) (PAD2): 91%
Substance: D-S-K-F-K-F-R-Y-A-Y-A-S-D (DSKFKFRYAYASD; not fully specified (C-terminus); printed as D-S-K-F-K-F-R-Y-A-Y-A-S-D) [Peptide 0735-34]

Conversion (%) (PAD4; Table 4, 13-mer peptides): 100%
Substance: D-S-H-H-W-D-R-E-W-F-W-S-D (DSHHWDREWFWSD; not fully specified (C-terminus); printed as D-S-H-H-W-D-R-E-W-F-W-S-D) [Peptide 0608-40]

Conversion (%) (PAD2): 70%
Substance: D-S-W-K-A-F-R-G-A-S-A-S-D (DSWKAFRGASASD) [Peptide 0735-29]

Conversion (%) (PAD4; [1]): 100%
Substance: F-F-D-S-K-H-F-H-R-D-F-I-Y-S-D (FFDSKHFHRDFIYSD) [Peptide 0612-25]

Conversion (%) (PAD2): 65%
Substance: D-S-Q-F-A-F-R-G-A-F-W-S-D (DSQFAFRGAFWSD) [Peptide 0735-30]

Conversion (PAD4): 51
Substance: D-S-K-K-F-D-R-D-F-L-F-S-D (DSKKFDRDFLFSD; not fully specified (C-terminus); printed as D-S-K-K-F-D-R-D-F-L-F-S-D) [Peptide 0708-27]

Conversion (%) (PAD4; [1]): 100%
Substance: F-F-D-S-K-K-H-D-R-D-F-L-Y-S-D (FFDSKKHDRDFLYSD) [Peptide 0612-33]

Conversion (%) (PAD4; [1]): 98%
Substance: F-F-D-S-H-H-L-S-R-D-F-M-Y-S-D (FFDSHHLSRDFMYSD) [Peptide 0612-41]

Conversion (%) (PAD2): 82%
Substance: D-S-Q-W-A-F-R-G-A-F-A-S-D (DSQWAFRGAFASD) [Peptide 0735-33]

Conversion (%) (PAD4; Table 4, 13-mer peptides): 95%
Substance: D-S-H-H-L-S-R-D-F-M-Y-S-D (DSHHLSRDFMYSD; not fully specified (C-terminus); printed as D-S-H-H-L-S-R-D-F-M-Y-S-D) [Peptide 0608-39]

Conversion (%) (PAD4; Table 4, 13-mer peptides): 90%
Substance: D-S-H-K-L-D-R-E-Y-M-F-S-D (DSHKLDREYMFSD; not fully specified (C-terminus); printed as D-S-H-K-L-D-R-E-Y-M-F-S-D) [Peptide 0608-34]

Conversion (%) (PAD2): 74%
Substance: D-S-Q-F-A-Y-R-N-A-K-A-S-D (DSQFAYRNAKASD) [Peptide 0735-36]

Conversion (%) (PAD2): 35%
Substance: D-S-Q-F-A-H-R-N-A-S-A-S-D (DSQFAHRNASASD) [Peptide 0735-28]

Conversion (%) (PAD4; [1]): 100%
Substance: F-F-D-S-H-K-H-H-R-D-H-L-E-S-D (FFDSHKHHRDHLESD) [Peptide 0612-43]

Conversion (PAD4): 70
Substance: D-S-K-W-F-D-R-D-H-L-Y-S-D (DSKWFDRDHLYSD; not fully specified (C-terminus); printed as D-S-K-W-F-D-R-D-H-L-Y-S-D) [Peptide 0708-16]

Conversion (%) (PAD4; Table 4, 13-mer peptides): 90%
Substance: D-S-K-K-W-S-R-E-Y-F-F-S-D (DSKKWSREYFFSD; not fully specified (C-terminus); printed as D-S-K-K-W-S-R-E-Y-F-F-S-D) [Peptide 0608-30]

Conversion (PAD4): 35
Substance: D-S-K-K-H-D-R-D-K-L-F-S-D (DSKKHDRDKLFSD; not fully specified (C-terminus); printed as D-S-K-K-H-D-R-D-K-L-F-S-D) [Peptide 0708-24]

Conversion (%) (PAD4; [1]): 100%
Substance: F-F-D-S-K-H-W-D-R-D-H-F-E-S-D (FFDSKHWDRDHFESD) [Peptide 0612-27]

Conversion (%) (PAD2): 82%
Substance: D-S-Q-W-A-F-R-N-A-F-A-S-D (DSQWAFRNAFASD) [Peptide 0735-38]

Conversion (%) (PAD4; [1]): 100%
Substance: F-F-D-S-H-H-K-D-R-D-H-V-E-S-D (FFDSHHKDRDHVESD) [Peptide 0612-39]

Conversion (PAD4): 18
Substance: D-S-W-W-H-K-R-D-K-L-Y-S-D (DSWWHKRDKLYSD) [Peptide 0708-23]

Conversion (PAD4): 53
Substance: D-S-K-K-H-D-R-D-H-L-F-S-D (DSKKHDRDHLFSD; not fully specified (C-terminus); printed as D-S-K-K-H-D-R-D-H-L-F-S-D) [Peptide 0708-21]

Conversion (%) (PAD4; Table 4, 13-mer peptides): 95%
Substance: D-S-H-K-L-H-R-E-W-M-W-S-D (DSHKLHREWMWSD; not fully specified (C-terminus); printed as D-S-H-K-L-H-R-E-W-M-W-S-D) [Peptide 0608-44]

Conversion (%) (PAD4; [1]): 100%
Substance: F-F-D-S-K-H-K-D-R-E-Y-V-F-S-D (FFDSKHKDREYVFSD) [Peptide 0612-24]

Conversion (%) (PAD4; [1]): 100%
Substance: F-F-D-S-H-H-W-D-R-E-W-F-W-S-D (FFDSHHWDREWFWSD) [Peptide 0612-42]

Conversion (%) (PAD2): 85%
Substance: D-S-Q-F-A-F-R-H-F-S-A-S-D (DSQFAFRHFSASD) [Peptide 0735-32]

Conversion (%) (PAD2): 80%
Substance: D-S-Q-F-K-F-R-G-A-F-A-S-D (DSQFKFRGAFASD) [Peptide 0735-39]

Conversion (%) (PAD4; [1]): 100%
Substance: F-F-D-S-K-H-H-H-R-E-Y-L-F-S-D (FFDSKHHHREYLFSD) [Peptide 0612-28]

Conversion (PAD4): 38
Substance: D-S-N-K-H-H-R-D-H-L-Y-S-D (DSNKHHRDHLYSD) [Peptide 0708-17]

Conversion (PAD4): 53
Substance: D-S-H-K-F-D-R-D-F-L-Y-S-D (DSHKFDRDFLYSD; not fully specified (C-terminus); printed as D-S-H-K-F-D-R-D-F-L-Y-S-D) [Peptide 0708-28]

Conversion (%) (PAD4; [1]): 100%
Substance: F-F-D-S-H-K-L-D-R-E-Y-M-F-S-D (FFDSHKLDREYMFSD) [Peptide 0612-36]

Conversion (%) (PAD4; [1]): 100%
Substance: F-F-D-S-K-H-H-S-R-D-H-L-E-S-D (FFDSKHHSRDHLESD) [Peptide 0612-23]
